No end group written: not given here.
What was measured:
HLA-A*0201 (HLA-A2.1) = HLA-A*0201 (HLA-A2.1) (Homo sapiens, UniProt P04439, D140Y/D185E/D98H/E176V/E277Q/G131W/G231S/I119V/I121R/I166T/I218V/L300P/L318F/N151K/N90K/P208A/P217A/Q86G/Q94H/R138H/R169H/T345S); experiment: biochemical; format: binding
A2.1 HLA molecules = A2.1 HLA molecules (Homo sapiens, UniProt P04439, D140Y/D185E/D98H/E176V/E277Q/G131W/G231S/I119V/I121R/I166T/I218V/L300P/L318F/N151K/N90K/P208A/P217A/Q86G/Q94H/R138H/R169H/T345S); format: binding; design: A*0201 / A2.1 Binding / A2 Bind. / A2 / A2.1 (binding capacity): scale not given here

## IMPKAGLLIIV
HLA-A*0201 (HLA-A2.1)
  binding to HLA-A2.1 (column 3; no allele head shown for these rows): 0.013
A2.1 HLA molecules
  A2 Bind.: 0.0130

## LMVTVYYGV
HLA-A*0201 (HLA-A2.1)
  IC50: 3.3 nM
A2.1 HLA molecules
  A2: 0.4400

## AMGLVCVQV
HLA-A*0201 (HLA-A2.1)
  binding to HLA-A2.1 (column 3; no allele head shown for these rows): 0.012
A2.1 HLA molecules
  A2 Bind.: 0.0120

## LMLGTLEEV [listing 1 of 2 here]
HLA-A*0201 (HLA-A2.1)
  binding to HLA-A2.1 (column 3; no allele head shown for these rows): 0.13
A2.1 HLA molecules
  A2 Bind.: 0.1300

## LLGDNQIMV [listing 1 of 2 here]
HLA-A*0201 (HLA-A2.1)
  binding to HLA-A2.1 (column 3; no allele head shown for these rows): 0.043
A2.1 HLA molecules
  A2 Bind.: 0.0430

## KMVELVHFLLL
HLA-A*0201 (HLA-A2.1)
  binding to HLA-A2.1 (column 3; no allele head shown for these rows): 0.67
A2.1 HLA molecules
  A2 Bind.: 0.6700

## YEFLWGPRA
HLA-A*0201 (HLA-A2.1)
  binding to HLA-A2.1 (column 3; no allele head shown for these rows): 0
A2.1 HLA molecules
  A2.1 relative binding (ratio of binding of test peptide relative to standard peptide): 0

## SMHCKPEEV
HLA-A*0201 (HLA-A2.1)
  binding to HLA-A2.1 (column 3; no allele head shown for these rows): 0.018
A2.1 HLA molecules
  A2 Bind.: 0.0180

## QLVFGIELMEV
HLA-A*0201 (HLA-A2.1)
  binding to HLA-A2.1 (column 3; no allele head shown for these rows): 0.34
A2.1 HLA molecules
  A2 Bind.: 0.3400

## GTLEEVPTA
HLA-A*0201 (HLA-A2.1)
  binding to HLA-A2.1 (column 3; no allele head shown for these rows): 0.013
A2.1 HLA molecules
  A2 Bind.: 0.0130

## ILGLLGFAV [listing 1 of 2 here]
A2.1 HLA molecules
  A2.1 relative binding (ratio of binding of test peptide relative to standard peptide): 0.060

## ILGLLGFAV [listing 2 of 2 here]
A2.1 HLA molecules
  A2 Bind.: 0.0600

## PLAYERDKL
A2.1 HLA molecules
  A2.1 Binding: 0

## LLVPFVQWFA
A2.1 HLA molecules
  A2 Bind.: 0.2600

## TMFEALP HI (TMFEALPHI)
A2.1 HLA molecules
  A2 Bind.: 0.2000

## NLEVIHDAL
A2.1 HLA molecules
  A2.1 Binding: 0

## LLCPAGHAV [Peptide F127.06]
A2.1 HLA molecules
  A*0201: 0.0140

## DMLGRVFFV
A2.1 HLA molecules
  A2 Bind.: 0.0110
  A2.1 Binding: 0.011

## KVADLVGFLLL
HLA-A*0201 (HLA-A2.1)
  binding to HLA-A2.1 (column 3; no allele head shown for these rows): 0.020
A2.1 HLA molecules
  A2 Bind.: 0.0200

## SILSPFLPLL
A2.1 HLA molecules
  A2.1 relative binding (ratio of binding of test peptide relative to standard peptide): 0.0025

## FMLLLCLIFL
A2.1 HLA molecules
  A2 Bind.: 0.0450

## WGLLGFAA
A2.1 HLA molecules
  A2.1 relative binding (ratio of binding of test peptide relative to standard peptide): 0.0009

## IISCTCPTV
A2.1 HLA molecules
  A2 Bind.: 0.0190

## LMIRGVLEV
A2.1 HLA molecules
  A2 Bind.: 0.4500
  A2.1 Binding: 0.45

## HLYIFATCLGL
HLA-A*0201 (HLA-A2.1)
  binding to HLA-A2.1 (column 3; no allele head shown for these rows): 0.041
A2.1 HLA molecules
  A2 Bind.: 0.0410

## VVSYVNVNM
A2.1 HLA molecules
  A2 Bind.: 0.0100

## CLGWLTGMDI
A2.1 HLA molecules
  A2 Bind.: 0.0190

## ALLLVLALL
A2.1 HLA molecules
  A2.1 Binding: 0.0014

## KLWVTVYYGV
A2.1 HLA molecules
  A2 Bind.: 0.0150

## 1.0689 (VLKDAIKDLV) [Peptide 1.0689]
A2.1 HLA molecules
  A2.1 (binding capacity): 0.0002

## LLPFVQWFV
A2.1 HLA molecules
  A2 Bind.: 0.6500

## LLGDNQIMV [listing 2 of 2 here]
A2.1 HLA molecules
  A2.1 relative binding (ratio of binding of test peptide relative to standard peptide): 0.043

## ILGFVFTLTV
A2.1 HLA molecules
  A2 Bind.: 0.0550

## SLYNTVSTL [Peptide F136.04]
A2.1 HLA molecules
  A*0201: 0.0320

## RLTGGVFLV
A2.1 HLA molecules
  A2 Bind.: 0.1600

## TLAA MHYSKL (TLAAMHYSKL)
A2.1 HLA molecules
  A2.1 Binding: 0.0008

## TLRMSSKAV
A2.1 HLA molecules
  A2.1 Binding: 0.0001

## ALASCMGLI
A2.1 HLA molecules
  A2 Bind.: 0.0110

## HLPDRVHFA
A2.1 HLA molecules
  A2 Bind.: 0.0160

## PMEAVRHPL
A2.1 HLA molecules
  A2.1 Binding: 0

## VMVTCLGLS V (VMVTCLGLSV)
A2.1 HLA molecules
  A2 Bind.: 0.3000

## GLSYDGLLG
HLA-A*0201 (HLA-A2.1)
  binding to HLA-A2.1 (column 3; no allele head shown for these rows): 0
A2.1 HLA molecules
  A2.1 relative binding (ratio of binding of test peptide relative to standard peptide): 0

## MLLRLSEPAEL
A2.1 HLA molecules
  A2 Bind.: 0.1400

## SLYADSPSV
A2.1 HLA molecules
  A2 Bind.: 0.3500

## LMTLATWVGV
A2.1 HLA molecules
  A2 Bind.: 0.6800

## RMTGGVFLV
A2.1 HLA molecules
  A2 Bind.: 0.1500

## KMFBQLAKV [Peptide 34.014]
A2.1 HLA molecules
  A*0201: 0.0980

## LLWWITILL
A2.1 HLA molecules
  A2 Bind.: 0.4900
  A2.1 Binding: 0.49

## LMLLDYQGMV
A2.1 HLA molecules
  A2.1 relative binding (ratio of binding of test peptide relative to standard peptide): 0.0087

## QMMPKTGFLV
HLA-A*0201 (HLA-A2.1)
  binding to HLA-A2.1 (column 3; no allele head shown for these rows): 0.050
A2.1 HLA molecules
  A2 Bind.: 0.0500

## NISGYNFSL
A2.1 HLA molecules
  A2 Bind.: 0.0280

## KMADLVGFLV
HLA-A*0201 (HLA-A2.1)
  binding to HLA-A2.1 (column 3; no allele head shown for these rows): 1.5
A2.1 HLA molecules
  A2 Bind.: 1.5000

## MVTTTNPLI
A2.1 HLA molecules
  A2 Bind.: 0.0150

## SLDSWWTSV
A2.1 HLA molecules
  A2.1 relative binding (ratio of binding of test peptide relative to standard peptide): 0.10

## LMLGTLEEV [listing 2 of 2 here]
A2.1 HLA molecules
  A2.1 relative binding (ratio of binding of test peptide relative to standard peptide): 0.13

## RMLTIPQSV
A2.1 HLA molecules
  A2.1 relative binding (ratio of binding of test peptide relative to standard peptide): 0.058

## ELQMMQDWV
A2.1 HLA molecules
  A2.1 Binding: 0.0001
